Reference: patent US20250092133A1 (Amgen, published 2025)

T1: Hu CDH3 Dom1B mu (aa 144-179), human/mouse chimeric CDH3 on CHO cells (chimeric hu/mu, UniProt P22223 108-681 (human entry))
T1 chain: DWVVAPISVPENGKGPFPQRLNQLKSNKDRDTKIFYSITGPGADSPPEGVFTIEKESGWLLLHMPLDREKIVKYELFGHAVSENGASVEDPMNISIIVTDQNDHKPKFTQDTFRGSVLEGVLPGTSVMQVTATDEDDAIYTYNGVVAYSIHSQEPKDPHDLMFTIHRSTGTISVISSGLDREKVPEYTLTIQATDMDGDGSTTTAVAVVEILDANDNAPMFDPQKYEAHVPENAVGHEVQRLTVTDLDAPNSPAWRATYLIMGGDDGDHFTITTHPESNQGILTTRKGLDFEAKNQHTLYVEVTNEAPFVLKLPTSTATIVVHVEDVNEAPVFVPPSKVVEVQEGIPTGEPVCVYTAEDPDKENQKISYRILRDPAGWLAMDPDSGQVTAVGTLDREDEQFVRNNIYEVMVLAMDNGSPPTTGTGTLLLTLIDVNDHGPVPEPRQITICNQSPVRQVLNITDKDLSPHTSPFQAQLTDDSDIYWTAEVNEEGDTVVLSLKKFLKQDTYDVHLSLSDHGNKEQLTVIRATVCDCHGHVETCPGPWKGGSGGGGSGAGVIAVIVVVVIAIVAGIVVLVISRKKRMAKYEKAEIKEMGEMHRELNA

T2: murine CDH3 on cells (mouse, UniProt P10287 100-822)
T2 construct: negative control; also called mouse CDH3
T2 sequence: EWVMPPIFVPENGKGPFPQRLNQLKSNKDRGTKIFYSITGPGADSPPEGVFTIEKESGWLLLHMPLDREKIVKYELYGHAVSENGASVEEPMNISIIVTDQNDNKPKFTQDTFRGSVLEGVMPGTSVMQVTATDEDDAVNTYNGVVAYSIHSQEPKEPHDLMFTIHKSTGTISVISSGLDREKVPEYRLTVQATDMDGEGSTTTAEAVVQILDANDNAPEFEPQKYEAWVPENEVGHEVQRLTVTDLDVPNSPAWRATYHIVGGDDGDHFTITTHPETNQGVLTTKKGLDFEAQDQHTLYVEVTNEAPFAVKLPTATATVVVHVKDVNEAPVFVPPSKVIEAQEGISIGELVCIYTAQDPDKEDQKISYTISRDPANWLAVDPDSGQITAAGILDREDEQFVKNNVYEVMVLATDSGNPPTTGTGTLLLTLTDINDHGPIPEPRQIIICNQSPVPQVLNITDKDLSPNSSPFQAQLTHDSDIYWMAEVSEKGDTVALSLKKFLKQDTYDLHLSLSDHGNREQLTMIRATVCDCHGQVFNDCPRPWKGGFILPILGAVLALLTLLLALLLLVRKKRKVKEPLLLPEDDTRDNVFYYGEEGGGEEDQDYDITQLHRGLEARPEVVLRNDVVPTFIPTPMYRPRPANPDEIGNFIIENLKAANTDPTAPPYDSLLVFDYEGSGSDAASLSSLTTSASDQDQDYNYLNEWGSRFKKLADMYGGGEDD

B1: CDH3-8 (scFv)
scFv: EVQLVEQSGAEVVKPGASVKITCKASGYAFSSYWMNWVRQRPGKGLEWIGHIYPGDGDTNYNGKFKGKVTLTADKSSNTAYMQLSDLTPEDSAVYFCARDRGSFGAWFAYWGQGTTVTVSSGGGGSGGGGSGGGGSELVMTQTPSSLSASLGDRVTISCRASQDISNYLNWYQQKPDGTVKLLIYYTSRLHSGVPSRFSGSGSGTDYSLTISNLEQEDIATYFCQQGNRNPPTFGGGTKLEIK
notes: Used as crude periplasmic extract and detected through a FLAG tag; also called CDH3-8 scFv
B2: CDH3-10 scFv (scFv)
scFv: EVQLVEESGGGLVKPGGSLKLSCAASGFTFSSYAMSWVRQTPDKRLEWVATISSGGHYTYYPDSVKGRFTISRDNAKNTLYLQMSSLKSEDTAMYYCASYYYGIPFGYWGQGTTVTVSSGGGGSGGGGSGGGGSELVMTQSPSSLSASLGEGVSLTCRASQDIGINLIWLRQEPDGTIKRLIYDTSSLDSGVPKRFSGSRSGSDYSLTISSLESEDFVHYYCLQYGSSPLTFGAGTKLEIK
B3: CDH3-9 (scFv)
scFv: EVQLVEESGGDLVKPGGSLKLSCAASGFTFSTYGMSWVRQTPDKRLEWVATISSGGHYSYYPDSVKGRFTISRDNAKNTLYLQMSSLKSEDTAMYYCASYYYGSPFAYWGQGTTVTVSSGGGGSGGGGSGGGGSELQMTQSPSSLSASLGERVSLTCRASQDIGSSLNWLQQKPDGTIKRLIYDTSSLDSGVPKRFSGSRSGSDYSLTISSLESEDFGDYYCVQYGSSPLTFGAGTKLEIK
notes: Used as crude periplasmic extract and detected through a FLAG tag; also called CDH3-9 scFv

Target: T1, Hu CDH3 Dom1B mu (aa 144-179), …
Experiment: flow cytometry, transfected CHO cells; crude periplasmic scFv extract; anti-FLAG M2 + anti-mouse IgG Fcγ-PE
Procedure: (§1) Cells transfected with human or murine CDH3, or with the chimeric human/mouse CDH3 molecules (see Example 1) were stained with crude, undiluted periplasmic extract containing scFv binding to human/macaque CDH3. […] As negative control, cells were incubated with PBS/2% FCS instead of the periplasmic extract. The samples were measured by flow cytometry.

Row | binding result | Binder
1 | no binding | B1
2 | no binding | B2
3 | no binding | B3

Target: T2, murine CDH3 on cells
Experiment: as above
Procedure: as §1

Row | binding result | Binder
4 | no binding | B1
5 | no binding | B2
6 | no binding | B3
